We go through one molecule from publication PMC4540666.

Experiment [1] deals with PLCγ1 SH2C domain (C-terminal SH2 domain of PLCγ1) (rat) (UniProt P10686). As to the kind of experiment: other fluorescence titration.
The target of experiment [2] is PLCγ1 SH2C-linker (rat) (UniProt P10686). The experiment is described as follows: other fluorescence titration.

[ ]: non-standard residue; d: D form. pY = N[C@@H](Cc1ccc(OP(=O)(O)O)cc1)C(=O)O

B1: SLP-76 pY173 peptide (Ac-NSMpY173IDRPPTGK-NH2) (peptide)
peptide: Ac-NSM[pY]IDRPPTGK-NH2
SMILES: CC[C@H](C)[C@H](NC(=O)[C@H](Cc1ccc(OP(=O)(O)O)cc1)NC(=O)[C@H](CCSC)NC(=O)[C@H](CO)NC(=O)[C@H](CC(N)=O)NC(C)=O)C(=O)N[C@@H](CC(=O)O)C(=O)N[C@@H](CCCNC(=N)N)C(=O)N1CCC[C@H]1C(=O)N1CCC[C@H]1C(=O)N[C@H](C(=O)NCC(=O)N[C@@H](CCCCN)C(N)=O)[C@@H](C)O
What is called Kd is the concentration at which binding is half-saturated. A lower Kd goes with higher affinity. For the molecule B1, the values for the Kd in experiment [1] and in experiment [2] were 1.6 µM and 2.9 µM, respectively.
